The nature of this data set: soluble on expression in E. coli; label from the status in PepcDB or PDB records.
For the sequence “MGSDKIHHHHHHMKIMVSEQFQCFMASLGVDLNSLLEAAGINKVVWQEQLMLSDVEYWQLMNEFDNQLTDEMILSLGNITNINTFMPSFFAALAAKNGEQAIARMATYKSLAGPVHLEIVTKPDIVNIHILGNSLGVELPRFTIMTEQLLLISLLRVGTGKLIKPISVGSKYPYGDQIDAVMGIRPQQLADNCIQFQVTDLQRAFISANNSMWAFLQPGLDQQKLAIEHNQSLLATVQALLLKKIPSGSFSIDEIATSLNLSKRTLQRHLSTLSTTFNDEVQIARRTLVVPLMKDQSLNLIEISYLLGYSDPESFSRAFKKWFHQSPSVYRQQSLGMFKN”, the “soluble on expression in E. coli” value was “not soluble”.

Take “RGGSFAKSWRPMTMSYANLSVDKVEHRALVLNTPYSIIRTIGKQGLEEKRFYASEKELEQVFNPIHHLATDTTARFSQLRGRNVMVIIIESFARQYVGRLNQDIPDYKGYTPCFDSISQKGYLFEQAFANGRKSIDAMPSILSSLPSLRSHFITSHYSGNEIEGLGTALGRIGYQSIFLHGAPNGSMGFDAFVKQAGYKRYFGKTEYAHDEDFDGVWGIWDEPFLLHAVDELSRMKQPFVGTLFTLSSHEPFHIPSHREGLFPNEGEPLVQCIGYTDHALGEFFRKASRQTWFENTLFVITADHASGDLRPEYRSAVGR”: the “soluble on expression in E. coli” value is listed as “not soluble”.

“MSVSPVQPDPSVIGGVPKAPFVLKPNLARLFNDRASRFEALAQGSHLAPYLNFLAGITRIQSELVSALPPPEPVPADRVERARANAMPPIDRAAMGGSPDCREVLQQFFEKAEALEKPAAAAEALAQVRTADEEMLTWMIGNVMADDLPVESLAHHLYVAAAMQIQAARLAAGLDGSRLVPIRVGVCPACGGRPVASMVIGFHGAEGARYASCSCCATMWNEVRVKCLACGSTKGIGYQAVETGDEEATVKAEVCDTCNSWMKILYQNKNPSLDVVADDVASLGLDLLMKDTEYKRAGFDPFLMGY”: the “soluble on expression in E. coli” value is “not soluble”.

Turning to “SANAEVSVPVGDVVVVPTEGNEGENPEDTKTQVILQLQPVQQGIYEAGSENNTAVVAVETHTIHKIEEGIDTGTIEANEDMEIAYPITCGESKAILLWKKFVCPGINVKCVKFNDQLISPKHFVHLAGKSTLKDWKRAIRLGGIMLRKMMDSGQIDFYQHDKVCSNTCRSTKFDLLISSARAPVPGQQTSVVQTPTSADGSITQIAISEESMEEAGLEWNSALTAAVTMATEEGVKKDSEEISEDTLMFWKGIADVGLMEEVVCNIQKEIEELLRGVQQRLIQAPFQVTDAAVLNNVAHTFGLMDTVKKVLDNRRNQVEQGEEQFLYTLTDLERQLEEQKKQGQDHRLKSQTVQNVVLMPVSTPKPPKRPRLQRPASTTVLSPSPPVQQPQFTVISPITITPVGQSFSMGNIPVATLSQGSSPVTVHTLPSGPQLFRYATVVSSAKSSSPDTVTIHPSSSLALLSSTAMQDGSTLGNMTTMVSPVELVAMESGLTSAIQAVESTSEDGQTIIEIDPAPDPEAEDTEGKAVILETELRTEEKVVAEMEEHQHQVHNVEIVVLED”, the “soluble on expression in E. coli” value is listed as “soluble”.

“MGSDKIHHHHHHMNANQFLKAVSQLQGWRECAFLLALAERSFPNYALFADAVGLKTGGKMRQLLDLAWDMLQKDVADAAIPQLLSKLETLCPNVDEYDAYGVYPAFDFCQLLEQALLNRLNPNKHRATEASQLATRTVMDFVEMSEGEGMDENELVRVFEHHPLLKDDKLFQRDTVMALKKQRTPKEAFLAELRAGAANDGVSNLGISLEG”: the “soluble on expression in E. coli” value is “not soluble”.

Take “MLDKQTMVTAHNALPGRTTAMSIDDTHFVNGSSLTAAPQSGQQQILIGMGCFWGAERLFWQLDGVISTSVGYSGGFTPNPTYEEVCSGKTGHTEVVRVIFDPERLPLTELLRAFWERHDPTQGMRQGNDRGTQYRSAIYTFSEDQREIAEASKAAYQALLTAQHRPSITTEILPAGAYYFAETYHQQYLAKNPNGYCGLGGTGVCFPPHSTL”: the “soluble on expression in E. coli” value is “not soluble”.

Turning to “MAPSQAPSRDRAGQEDEDRWEARGDRKARKPLVEKKRRARINESLQELRLLLAGTEVQAKLENAEVLELTVRRVQGALRGRAREREQLQAEASERFAAGYIQCMHEVHTFVSTCQAIDATVSAELLNHLLESMPLREGSSFQDLLGDSLAGLPGGSGRSSWPPGGSPESPLSSPPGPGDDLCSDLEEIPEAELNRVPAEGPDLVSTSLGSLTAARRAQSVWRPW”, the “soluble on expression in E. coli” value is on record as “not soluble”.

Consider “MEPWLVGIDLGGTTIKMAFVTTEGDIVHKWEIPTNTANRGEHIVADIARSLEKTLGQLGGAKERLLAAGIGAPGPVEEETGMLYETVNIGWTNYPLKQRLEEATGLPVSVDNDANLAALGEMWKGAGGGARHLLFVTLGTGVGGGVIANGAIVRGINGAGGEIGHMTMIPDGGARCNCGKTGCLETIASATGIVRIAKEKLTADERPSELRNGDVTAKAVFDAAKAGDALALEVVDEATYYLGWALANAANVTNPEKIVIGGGVSKAGDMLVERVAAHFRRFAFPRVAAGAKLVLATLGNDAGVIGAAWLAKELVGA”, for which the “soluble on expression in E. coli” value is “not soluble”.

As for “MELSEPLENYLKEIYEIELLKGYARVSDLILAFNVSPGTVSKALEKLEKIGLIERDNKKIKLTAEGKKIAEKLIRAHRLSERLLTDIIGLDWIRAHQLAHRLEHIWPEDVVDKIDELLGKPLTCPHGHPIPGREVKVNGIKLSEAECNKKYKVIMIIREEEWILSMADELNIKPGVEIKLIKKNENDFVIEIDNKKESIPKALAEEVLVSE”, the “soluble on expression in E. coli” value is “soluble”.

Consider “MAHDVEVKNAVRGAYVFDRLSLEMAAEKAGVSFGTARRWKANAESNGDNWDKARDVHVMASGGIENIAQGLLTGFLIKYRKLMSELEENTEMATAAKVEALSALADSFAKMTASSKKLLPETSAMATAMRAIEMMANIVKSKKPHLLPDFLEMLDDLEVQFKKEFK”, for which the “soluble on expression in E. coli” value is “not soluble”.

As for “MGSDKIHHHHHHMQEDISRKSPMLSNIKSWYRRRIIENHSVPDDIWQNAIARLRFLQALEAVELERLRECVVLFLHVKQISGAHGLVITDEMRVLIAAQACILILNLDLDYYDGWVEIIVYPGEFIRDYEYVDEDGIVHHAVEPASGESWLGGPVILSWEDAVAAVSGTEISQGYNVVIHEFAHKLDMLNGEANGFPPIHPDMSRQAWSEAFSKAYADFCRSIDAGEMMEIDLYAAESPAEFFAVISEAFFEMPISVRIHFPAVYEQLALFYRQDPAQRRSEP”, the “soluble on expression in E. coli” value was “not soluble”.

“MITIRNKIGQMLIMGFHGSELHDNSPVAQWLSNDGLGGVLLFDKDLSTGIYGKNLRNQAQIKQLIRQLNRYASMISGGNDNLPLFTAIDYEGGVVDRLSKIEGCPPTMKARELAKLSSDDFDEEVTQMAMTLQSLGFNLNFAPVVDLNLNAHAGIIGNLGRSFSSNPEVTIRLAKQFVDVFSRYGIACAYKHFPGHGSATGDTHEGFVDVTETFQTDELIPYRSLLKDLSNPFMVMTAHVINKHLDSKGLPATLSYDVLTLLLRQSIGYDGVIISDDLQMHAISNHYSLEDALCLTINAGADMVIFANQLGTITPPEVIDVIEKLVIDKQIPYQRIDEAYRRIVRLKQQIICSELINT”: the “soluble on expression in E. coli” value is given as “not soluble”.

With “MAHHHHHHMCACTYSYPRAAHGHDGTTSQLFTRKRIFTLPQLHRSYFLKLLFVQKPLSNPLLAVSLHLTFHQHHSLLGPSVACRAHKHMINYYAKCRARNHTEGEGRCLAFRGMY”, the “soluble on expression in E. coli” value is “not soluble”.

As to “MQIALAPMEGLVDEILRDVLTRVGGIDWCVTEFIRITDRLLPATAFHKLAPELRDGSRTRAGTPMRVQLLGSDPACLADNAAFACELGAPVIDLNFGCPAKTVNRSRGGAVLLKEPELMHDIVAAVRRAVPSEIAVTSKMRLGYDSPDGALDCARALADGGSAHVVVHARTKVDGYRPPAHWEWVARVAEAVRVPVFANGEVWTLDDYLRCREVSGVEDIMLGRGLVSRPGLARQIAAWRDGGEIREMPWSELLPLLRDFWLQARRKLAPRYAPGRLKQWLGMLTRTYPEAVELFARIRRESDCETIDR”, the “soluble on expression in E. coli” value was “not soluble”.

With “MNDYSTTRDRVEHYFDRTATHTWERLTSSAPVSRIRQTVREGRDTMRAKMLWRLPKDLTGLRVLDAGCGAGQMTAELAARGAQVMAVDISPQLVEIARKRLPPEHQDRVTFASGDMLADDLGRFDYVVAMDSLIYYTDADIAAALDRLGARTRHSVVFTVAPRTPFLMAFWTMGKLFPRSDRSPVMIPHPFQPLNEATGGRLVKVGRVSRGFYISECLEFRPLEHHHHHH”, the “soluble on expression in E. coli” value is “not soluble”.

For “MVKIVKAQFHTAGKLYDFGAGDLDLKPGDKIIVETERGRSIATVVTPPREYEEAHVPEGLKTAIRIAEPSDLASAARNDAREQEAHAFCLRKIKERGMEMKLVKVEYLFDGSKAIFYFTADGRVDFRELVKDLAHQFHTRIEMRQIGVRDESKMIGGIGICGRELCCSSFLREFEPVSVKMAKEQNLALNPTKISGQCGRLLCCLGYEYETYCSLKKCLPKCGKVVKCGSTEGEVIKQNIIEGTVFVKTDDDRIVELKGESIKPEDISERPKSPRREGGTREREKEPQSSSDNQRREKPRDREQKPGDDGEQRRERDTKKNQDQQRGERGNRDRRGGKGRDKDKKEPKLEHHHHHH”, the “soluble on expression in E. coli” value is “soluble”.

With “MVHSTDSFDFLGWNFVVKPNGKFISTPSQKATSSIKAKVKEVMKDSCFTLEERIDKCGAIVRGWRNYHRFCDMSQHNLWAIAYWTWKFIRKQGRYNRDQTNQVIHRAFPAVKWAACRFNNVTEDKSPLEHHHHHH”, the “soluble on expression in E. coli” value was “not soluble”.

Turning to “MAHHHHHHMTLIENLNSDKTFLENNQYTDEGVKVYEFIFGENYISSGGLEATKKILSDIELNENSKVLDIGSGLGGGCMYINEKYGAHTHGIDICSNIVNMANERVSGNNKIIFEANDILTKEFPENNFDLIYSRDAILHLSLENKNKLFQKCYKWLKPTGTLLITDYCATEKENWDDEFKEYVKQRKYTLITVEEYADILTACNFKNVVSKDLSDYWNQLLEVEHKYLHENKEEFLKLFSEKKFISLDDGWSRKIKDSKRKMQRWGYFKATKN”, the “soluble on expression in E. coli” value is recorded as “soluble”.

For the sequence “MGSDKIHHHHHHMHDFLQFWLNEFSRSENPQHVNSVLTRAAATLGYEYAAYGMRRPFPISNPQILMVSNYPDRWQERYIEARFANVDSAVKAALGSDRPVTWSASTNASKSAFWAEALSFGIAHGWSSASRGADGTIGVLSLSRRQDAIDTAEKFRNESIVHWLANVAHASMAPFLPAADEFDPDLTRRETDVLKWTADGKTAYEIALILSISESTVNFHVKNIVSKLGSTNKIQAVAKAALMGML”, the “soluble on expression in E. coli” value is “not soluble”.

Turning to “MGSDKIHHHHHHMVVRGRLKGVEAEFIDFHVHMPYWIRDPVKSCRRLLLEELTAGAISAVVIGVDASLETIKSRVTPREITEAAMEDFDYLAFQQVGYIGRMIMEPEKFLDDFLGDFHKHRRGPEDLRACRSVEPRFFYTIVSYKPGMEEEVAQIVRSDSSILGVKIFPTFHFTRPDSQRLYPVYKAVEEAGGLVVVHTGCDPGPWELTRFCREARPSYVARAAKRFENLVFVIAHLGAYSALKPGIYFEETLKALSLENVYADTSAADPFFAAMAVKEGYADKILFGSDYPYVSGYNVAMAVKDILSLDIDNNDKEAVLRYNAEKLLNSLPRGRQKPG”, the “soluble on expression in E. coli” value is “not soluble”.

For the sequence “MITAEKKKKNKFLPNFDKQSIYSLRFDEMQNWLVEQGQQKFRAKQIFEWLYQKRVDSIDEMTNLSKDLRQLLKDNFTVTTLTTVVKQESKDGTIKFLYELQDGYTIETVLMRHDYGNSVCVTTQVGCRIGCTFCASTLGGLKRNLEAGEIVSQVLTVQKALDATEERVSQIVIMGIGEPFENYDEMMDFLRIVNDDNSLNIGARHITVSTSGIIPRIYDFADEDIQINFAVSLHAAKDEVRSRLMPINRAYNVEKLIEAIQYYQEKTNRRVTFEYGLFGGVNDQLEHARELAHLIKGLNCHVNLIPVNHVPERNYVKTAKNDIFKFEKELKRLGINATIRREQGSDIDAACGQLRAKERQVETRLEHHHHHH”, the “soluble on expression in E. coli” value is “not soluble”.

Values taken from the DeepSol protein solubility set.
